pKi: −log10 of the molar value.

For orientation: pKi means −log10 of the Ki, conventionally taken in molar units. A high value points to a low Ki.

The target of experiment [1] is delta opioid receptor (δOR) on HCT-116/δOR cells (UniProt P41143). Kind of experiment: LTRF competitive binding against Eu-DTPA-DPLCE (5 nM) on whole HCT-116/δOR cells; average of three experiments.
Experiment [2] shares this target. Kind of experiment: TRF competitive binding against Eu-labeled DPLCE on HCT116/δOR cells.

“Dmt-Tic-IR800 (Compound 1 of Scheme 4) (peptide)” gave a pKi in experiment [1] of 8.84.
“Dmt-Tic-Lys(Cy5)-OH (Cy5 labeled ligand 1) (peptide)” had a pKi in experiment [2] of 8.52.
Take “Dmt-Tic-Lys(Mpr)-OH (ligand 6) (peptide)”: the pKi in experiment [2] is 8.60.
